This is an account of results in the nanobody polyreactivity screen of Harvey et al. (2022).

A short description of the data set: yeast display, Sf9 membrane polyspecificity reagent, FACS + sequencing; frameworks hold sequencing errors. The method, boiled down: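 Polyreactivity labels are assigned by the sorting gate from which each nanobody was recovered. The gates were low and high (top ~1%), set on anti-HA fluorescence for expression and streptavidin fluorescence for reagent binding. Before sorting, galactose-induced (36–48 hours) yeast display cells were stained for 1 hour at 4 °C with 10% biotinylated, detergent-solubilized Sf9 membrane reagent.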
Regarding “QVQLVESGGGLVQAGGSLRLSCAASGFIFAPYAMGWYRQAPGKEREFVASITYGSDSTYYADSVKGRFTISRDNAKNTVYLQMNSLKPEDTAVYYCNREGWHYGPYGYWGQGTQVTVSS”, the “polyreactivity (PSR sort gate)” value is recorded as “low polyreactivity”. The value for “QVQLVESGGGLVQARGSLRLSCAASGSTFRFNAMGRYRQAPGKEREFVAAIRFTGGSTYYADSVKGRFTISRDYAKNTVYLQMNSLKPEDTAVYYCNNADEYSNVEYDYWGQGTQVTVSS” was “low polyreactivity”; that for “QVQLVESGGGLVQAGGSLRLSCAASGRIFPAYAMGWYRQAPGTERELVASIRRGGITYADSVKGRFTISRDNAKNTVYLQMNSLKPEDTAVYYCNADYRGWGYHMDYWGQGTQVTVSS” was “low polyreactivity”. In the case of “QVQLVESGGGLVQAGGSLRLSCAASGSIFYSYAMGWYRQAPGKERELVASISDGSSTYADSVKGRFTISRDNAKNTVYLQMNSLKPEDTAVYYCNADATDSYPEKDEHDSWGQGTQVTVSS”, the “polyreactivity (PSR sort gate)” value is listed as “low polyreactivity”. To “QVQLVESGVGLVQAGGSLRLSCAASGRIFDGYDMGWYRQAPGKERELVAAITSVGSTNYADSVKGRFTISRDNAKNTVYLQMNSLKPEDTAVYYCAAVLYVFYDEYGYWEYFSQYDYWGQGTQVTVSS” belongs “low polyreactivity”; to “QVQLVESGGGLVQAGGSLRLSCAASGSTFVANAMGWYRQAPGKERELVAAISFNRGGNTYYADSVKGRFTISRDNAKNTVYLQMNSLKPEDTAVYYCAARNSYGNWRYYYWGQGTQVTVSS”, “high polyreactivity”; to “QVQLVESGGGLVQAGGSLRLSCAASGRTFYDNAMGWYRQAPGKERELVAVISRSGSTYYADSVKGRFTISRDNAKNTVYLQMNSLKPEDTAVYYCARRGVWGVTYSRLYHWGQGTLVTVSS”, “high polyreactivity”. To “QFQLVESGGGLVQAGGSLRLSCAASGLTFKYYGMGWYRQAPGKERELVATISSGGRTNYADSVKGRFTISRDNAKNTVYLQMNSLKPEDTEVYYCNRPRWYGGSPYYYWGQGTQVTVSS” belongs “high polyreactivity”; to “QVQLVESGGGLVQAGGSLRLSCAASGSTFYENTMGWYRQAPGKERELVAAISFRGGSTYYADSVKGRFTISRDNAKNTVYLQMNSLKPEETAVYYCAKEYYTVRLYDYWGQGTQVTVSS”, “low polyreactivity”. Regarding “QVQLVESGGGLVQAGGSLRLSCAASGSTFYIYAMGWYRPAPGKERELVAAIDWTGSTYYADSVKGRFTISRDNAKNTVNLQMNSLKPEDTAVYYCAAYYDLEDDSYRLNSWGQGTQVTVSS”, the “polyreactivity (PSR sort gate)” value was “high polyreactivity”. In the case of “QVQLVESGGGLVQAGGSLRLSCAASGSIIWLYAMGWYRQAPGKERELVAAISSGGSTYYADSVKGRFTISRDNAKNTVYLQMNSLKPEDTAVYYCAADYWSQSDWWDLTEYEYWGQGTQVTVSS”, the “polyreactivity (PSR sort gate)” value is recorded as “high polyreactivity”. The value for “QVQLVESGGGLVQAGGSLRLSCAASGSTFDVYAMGWYRQAPGKERELVAVINTSGTRTYYADSVKGRFTISRDNAKNTVYLQMNSLKPEDTAVYYCNAGGHLEMNYWGLGTQVTVSS” was “low polyreactivity”; that for “QVQLVESGGGLVQAGGSLRLSCAASGHIFSRYAMGWFRQAPGKERDLVATITNRGGSTYYADSVKGRFTISRDNAKNSVYLQMNSLKPEDTAVYYCARRTKSYVSHPLDYWGQGTQVTVSS” was “high polyreactivity”. The value for “QVQLVESGGGLVQAGGSLRLSCAASGFTFSYYAMGWYRPAPGKERELVAAITSGGSTYYADYVKGRFTISRDNAKNTVYLQMNSLKPEDTAVYYCNADGWYYPTDDYWGQGTQVTVSS” was “low polyreactivity”; that for “QVQLVESGGGLVQAGGSLRLSCAAYGNTFEHYAKGWYRQAPVKERELVAAISNSGGSTYYADSVKGRFTLSRDNAKNTVYLQMNSLKPEDTAVYYCNARGRASATVRLGRPDPFGDWGQGTQVTVSS” was “high polyreactivity”; that for “QVHLVDSGGGLVQAGGSLRLSSAASGRIFPFYAMGWYRKAPGKERELVAAITSSGGRTYYADSVKGRFTISRDNAKNTVYLQMNSLKPEDTAVYYCAASLVGPFIYSHLYDYWGQGTQVTVSS” was “low polyreactivity”. To “EVQLVESGGGLDQAGGSLRLICAASARTFIWNAMGWYRQEPGKERDLVAAITRNGDSTYYADSVKGRFTISRDNAKNTVYLQMNRLKPEDTAVYYCAAYSRVFVYRTVGNYGWMNYWGQGTQVTVSS” belongs “high polyreactivity”. As to “QVQLVESGGGLVQAGGSLRLSCAASGGTLDYNAMGWYRQAPGKERELVAGITSGGGTYYADSVKGRFTISRDNAKNTVYLQMNSVKPEDTAVYYCAARPWRSRYYGGLGRRFDYWGQGTQVTVSS”, the “polyreactivity (PSR sort gate)” value is on record as “high polyreactivity”. To “QVHLVESGGGLVQAGGSLRLSCAASGRTFSTYAMGWYRQAPGTERELVAAISSGGGRTYYADSVKGRFTISRDNAKNTVYLQMNRLKPEDTAVYYCAADRYFRSSRSYEYWGQGTLVTVSS” belongs “low polyreactivity”; to “QVQLVESGGGLVQAGGSLRLSCAPSGSIFSYYDMGGYRQAPGKERELVAGISRGGSTNYADSVKGRFTISRDNAKNTVYLQMNSLKPEDTAVYYCNADQSSRTFPFRLSRRSWLYGYWGQGSQVTVSS”, “low polyreactivity”; to “EVQLVESGGGLVQAGGSLRLSCAASGFIFGYNAMGWYRQAPGKERDLVAAISWSGGSTYYADSVKGRYTISRDNAKNTVYLQMNSLKPEDTAVYYCNRGYTAQVFTEFDYWGQGTLVTVSS”, “low polyreactivity”. “QVQLVESGGGLVQAGGSLRLSCAASGFIFSLYAMGWYRQAPGKERELVAAISRSDDRTYYADSVKGRFTISRDDAKNTVYLQMNSLKPEDTAVYYCNVRYSYILIYEYWGQGTQVTVSS”: the “polyreactivity (PSR sort gate)” value is reported as “low polyreactivity”.

For “QVQLVESGGGLVQAGGSLRLSCAASGSTFGVYAMGWYRQAPGKERELVASITSGTSTYADSVKGRFTISRDNAKNTVYLQMNSLKPEDTAVYYCAAEYLYFNLGYDYWGQGTQVTVSS”, the “polyreactivity (PSR sort gate)” value is recorded as “low polyreactivity”.

In the case of “QVQLVESGGGLVQAGGSLRLRCAASGNIFDDNAMGWYRQAPGKERELVAALTWTGGSTYYADSVKGRFTISRDNAKNTVYLQMNSLKAEYTAVYNCADYDYWGQGTQVTVSS”, the “polyreactivity (PSR sort gate)” value was “low polyreactivity”. The value for “QVQLVDSAGGLVQAGGSLRLSCAASGLTFPPNAMGWYRQAPGKEREFVAVISSGGGSTYYADSVKGRFTISRDNAKNTVYLQMNSLKPEDTAVYYCATEYQDGDTEYYYWGQGTQVTVSS” was “low polyreactivity”. To “QVQLVESGGGLVQAGGSLRLSCAASGFNFVYYAMGWYREAPGKERELVAVISWSGGSTNYADSVKGRFTISRDNAKNTVYLQMNSLKPEDTAVYYCAADAYAYTPYYGYRVDYWGQGTQVTVSS” belongs “high polyreactivity”. “QVQLVESGGGLVQAGGSLRLSCAASGSTFVYNAMGWYRQAPGKERELVAAITSRGGSTDYADSVKGRFTISRDNAKNTVYLQMNSLKPEYTSVYYCAADYSHTGSRYYQEGDYWGQGTQVTVSS”: the “polyreactivity (PSR sort gate)” value is “low polyreactivity”. In the case of “QVQLVESGGGLVQAGGSLRLSCAASGSTFRTNAMGWYRQAPGKERELVAAISGSGSRTYYADSVKGRFTISRDNAKNTVYLQMNSLKPEDTAVYYCAAVYGGVGYRRREYWGQGTQVTVSS”, the “polyreactivity (PSR sort gate)” value was “high polyreactivity”.

Turning to “QVHHVESGGGLVQARGSLRLSCAASGFIFSSYTMGWYRQAPGKERELLAAITSRGGSTYYADSVKGRVTISRDTAKNTVYLQMNSLKAEDTAVYYCNARRIPYSPYGVHEGNYWGQGTQVTVSS”, the “polyreactivity (PSR sort gate)” value is given as “high polyreactivity”.

For the sequence “QVQLVESVGGLVQAGGSLRLSCAASGSTFAFNAMGWYRQAPGKEREFVAAITWRGGSTYYADSVKGRFTISRDNAKNTVYLQMNSLKPEDTAVYYCARRPGYALTWRVSGRYDYWGQGTQVTVSS”, the “polyreactivity (PSR sort gate)” value is on record as “high polyreactivity”. For “QVQLVESGGGLVQAGGSLRLSCAASGFIFRHYAMGWYRQAPGKERELVAGINTSGGSTHYADSVKGRFTISRDNAKNTVYLQMNSLKPEDTAVYYCAADVYRYYAGSRYYYWGQGSQVTVSS”, the “polyreactivity (PSR sort gate)” value is given as “low polyreactivity”. As for “QVQLVESGGGLVQAGGSLRLSCAASGFTFYYYAMGWYRQAPGKERELVAAISSRGGNTYYADSVKGRFTISRDNAKNTVYLQMNSLKPEDTAVYYCASVPLKYDYWGQGTQVTVSS”, the “polyreactivity (PSR sort gate)” value is “high polyreactivity”. To “QVQLVESGGGLVQAGGSLRFSWAASGFIFRSNAMGWYRQAPGKERELVAAISKSGGSTYYADSVKGRFTISRDTAKKTVYLQMNSLKPEDTAVYYCFVDYYPYDYWGQGTQVTVSS” belongs “low polyreactivity”. In the case of “QDQLVESGGGLVQAGGSLRLSCAASGSTFTSNAMGWYRQAPGKERELVAAISFSDASTYYADSVKGRFTISRDNAKKTVYLQMNSLKPEDTAVYYCNADYPTTAYDYCGQGTQVTVSS”, the “polyreactivity (PSR sort gate)” value was “low polyreactivity”. Regarding “QVQLVESGGGLVQAGGSLRLSCAASGITFVGNARGWYRQAPGKERELVAGIRGNGGSTYYADSVKGRFTISRDNAKNTVYLQMNSLKPEDTAVYYCAAAAYYADFDYWGQGTQVTVSS”, the “polyreactivity (PSR sort gate)” value is “low polyreactivity”. Regarding “QVQLVESGGGLVQAGGSLRLSCAASGRIFNRNAMGWYRQPPGKERELVAAISWSGTRTYYADSVKGRFTISRDNAKNTVYLQMNSLKPEDTAVYYCAAGASLYSYYGFLPYDYWGQGTQVTVSS”, the “polyreactivity (PSR sort gate)” value is given as “high polyreactivity”. The value for “QVQLEESGGGLVQAGGSLRLSCAASGSIFQINAMGWYRQAPGKERELVAAITRGGGTTYYADSVKGRFTISRDNAKNTVYLQMNSLKPEDTAVYYCAADFERRRYDYWGQGTQVTVSS” was “low polyreactivity”; that for “QVQLVESGGGLVQAGGSLRLSCAASGRTFARYTMGWYRQAPGKERELVASITRGGSTYYADSVKGRFTISRDNAKNTVYVQMNSLKPEDTAVYYCAARFPQHNYWAMDYWGQGTQVTVSS” was “high polyreactivity”; that for “QVQLVESGGGLVQAGGSLRLSCAASGRIFFYYAMGWYRQAPGTERELVAAITSGGNTNYADSVKGRFTISRDNAKNTVYLQMNSLKPEDTAVYYCAVDSWEYWRRGIYYYRFYYWGQGTQVTVSS” was “low polyreactivity”. Regarding “QVQLVESGGGLVQAGGSLRLSCAASGGTIGYNAMGWYRQAPGKERELVAAISWSGGTTYYADSVKGRFTISRDNAKNTVYLQMNSLKPEDTAVYYCNVYSRGRDDWGQGTQVTVSS”, the “polyreactivity (PSR sort gate)” value was “high polyreactivity”. For “QVQLVESGGGLVQAGGRLRLSCAASGRIFSINAMGWYRQAPGKERELVAAISNRGGSTYYADSVKGRFTISRDNAKNTVYLQLNSLKPEDTAVYYCAARVATSGNYAPYYYWGQGTQVTVSS”, the “polyreactivity (PSR sort gate)” value is recorded as “high polyreactivity”.
